{"source": "paper PMC11764660", "about": "“Self-Assembled Peptide Hydrogels PPI45 and PPI47: Novel Drug Candidates for Staphylococcus aureus Infection Treatment” (Gels, 2025)", "proteins": {"B1": {"name": "PPI42 (peptide)", "chain": "GFGCNGPWSEDDMKCHNHCKSIKGYKGGYCAKGGFLCKCY", "notes": "mutant of the fungal defensin plectasin (40 amino acids); numbers count on: the mature protein; Forms fibrils and gels by self-assembly; also called self-assembling variant PPI42; defensin-derived peptide PPI42; source: Pichia pastoris X-33 (pPICZαA), fermentation supernatant, purified by cation exchange chromatography"}, "B2": {"name": "PPI45 (peptide)", "chain": "B1 chain with S9N", "notes": "mutant of the fungal defensin plectasin, derived from PPI42 by S9N; numbers count on: the mature protein; S9N against the parent PPI42; also called PPI45:N9; source: Pichia pastoris X-33 (pPICZαA), fermentation supernatant, purified by cation exchange chromatography"}, "B3": {"name": "PPI47 (peptide)", "chain": "B1 chain with M13L, K14R", "notes": "mutant of the fungal defensin plectasin, derived from PPI42 by 13M14K to 13L14R; numbers count on: the mature protein; M13L and K14R against the parent PPI42; also called PPI47:L13 R14; source: Pichia pastoris X-33 (pPICZαA), fermentation supernatant, purified by cation exchange chromatography"}}, "molecular_target": "the molecule itself", "experiment": "transmission electron microscopy; peptide solution at its CMC on a copper grid, stained with phosphotungstic acid; monomers to fibres", "note": "Changes are numbered by the printed parent chain. Numbers in names are those of the source.", "data": [{"protein": "B1", "values": [{"measurement": "binding result", "result": "binds"}]}, {"protein": "B2", "values": [{"measurement": "binding result", "result": "binds"}]}, {"protein": "B3", "values": [{"measurement": "binding result", "result": "binds"}]}]}
